What follows are sequences tested on Escherichia coli TOP10 (assay: shrunken log2 fold change of peptide-encoding DNA abundance (4.5 h post-induction vs induction); higher = less antimicrobial activity (less host growth inhibition)). Conditions: time post-induction: 4.5 h; library: site-saturation at positions 5, 18, 19, 20.
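Also: peptides expressed intracellularly from a pBAD plasmid library in pooled LB shake-flask culture, induced with 0.3% L-arabinose, DNA abundance read by NGS, three biological replicates, DESeq2 with apeglm shrinkage.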

Row | Sequence | shrunken log2 fold change
1 | RRIRERPPRLPRPRPRPPEQPRP | 0.251
2 | RRIRERPPRLPRPRPRPPFEPRP | 0.363
3 | RRIRERPPRLPRPRPRPPFPPRP | 0.018
4 | RRIRERPPRLPRPRPRPPFWPRP | -0.0269
5 | RRIRERPPRLPRPRPRPPGHPRP | -0.0333
6 | RRIRERPPRLPRPRPRPPGLPRP | 0.433
7 | RRIRERPPRLPRPRPRPPHDPRP | 0.0906
8 | RRIRERPPRLPRPRPRPPHMPRP | -0.152
9 | RRIRERPPRLPRPRPRPPHSPRP | 0.0332
10 | RRIRERPPRLPRPRPRPPICPRP | -0.302
11 | RRIRERPPRLPRPRPRPPLQPRP | -0.176
12 | RRIRERPPRLPRPRPRPPLWPRP | 0.779
13 | RRIRERPPRLPRPRPRPPNSPRP | -0.148
14 | RRIRERPPRLPRPRPRPPPAPRP | 0.365
15 | RRIRERPPRLPRPRPRPPPEPRP | 0.574
16 | RRIRERPPRLPRPRPRPPPFPRP | 0.313
17 | RRIRERPPRLPRPRPRPPSIPRP | -0.0171
18 | RRIRERPPRLPRPRPRPPTDPRP | -0.0968
19 | RRIRERPPRLPRPRPRPPTIPRP | -0.0452
20 | RRIRERPPRLPRPRPRPPTPPRP | 0.192
21 | RRIRERPPRLPRPRPRPPTWPRP | 0.113
22 | RRIRERPPRLPRPRPRPPVSPRP | 0.0232

Row | Sequence | shrunken log2 fold change
23 | RRIRERPPRLPRPRPRPPWFPRP | 0.0508
24 | RRIRERPPRLPRPRPRPPWSPRP | -0.0222
25 | RRIRERPPRLPRPRPRPPYCPRP | -0.275
26 | RRIRERPPRLPRPRPRPPYEPRP | -0.296
27 | RRIRERPPRLPRPRPRPPYKPRP | -0.107
28 | RRIRERPPRLPRPRPRPPYYPRP | -0.433
29 | RRIRERPPRLPRPRPRPQAFPRP | -0.017
30 | RRIRERPPRLPRPRPRPQDMPRP | -0.492
31 | RRIRERPPRLPRPRPRPQECPRP | -0.399
32 | RRIRERPPRLPRPRPRPQEDPRP | -0.0088
33 | RRIRERPPRLPRPRPRPQFKPRP | -0.444
34 | RRIRERPPRLPRPRPRPQGFPRP | -0.144
35 | RRIRERPPRLPRPRPRPQHAPRP | -0.107
36 | RRIRERPPRLPRPRPRPQIVPRP | -0.108
37 | RRIRERPPRLPRPRPRPQLGPRP | 0.329
38 | RRIRERPPRLPRPRPRPQLWPRP | 0.116
39 | RRIRERPPRLPRPRPRPQMSPRP | -0.114
40 | RRIRERPPRLPRPRPRPQMTPRP | -0.312
41 | RRIRERPPRLPRPRPRPQPFPRP | 0.217
42 | RRIRERPPRLPRPRPRPQQEPRP | -0.0361
43 | RRIRERPPRLPRPRPRPQQGPRP | -0.219
44 | RRIRERPPRLPRPRPRPQQMPRP | -0.237

Row | Sequence | shrunken log2 fold change
45 | RRIRERPPRLPRPRPRPQRCPRP | -0.0721
46 | RRIRERPPRLPRPRPRPQRDPRP | 0.0296
47 | RRIRERPPRLPRPRPRPQRRPRP | -0.0022
48 | RRIRERPPRLPRPRPRPQTEPRP | -0.0317
49 | RRIRERPPRLPRPRPRPQVGPRP | -0.0112
50 | RRIRERPPRLPRPRPRPQVYPRP | -0.023
51 | RRIRERPPRLPRPRPRPQWFPRP | -0.166
52 | RRIRERPPRLPRPRPRPQWWPRP | 0.273
53 | RRIRERPPRLPRPRPRPQYSPRP | -0.0489
54 | RRIRERPPRLPRPRPRPRDKPRP | -0.187
55 | RRIRERPPRLPRPRPRPREKPRP | 0.354
56 | RRIRERPPRLPRPRPRPREPPRP | 0.392
57 | RRIRERPPRLPRPRPRPRFPPRP | 0.0958
58 | RRIRERPPRLPRPRPRPRFYPRP | -0.115
59 | RRIRERPPRLPRPRPRPRGMPRP | 0.0957
60 | RRIRERPPRLPRPRPRPRIMPRP | -0.712
61 | RRIRERPPRLPRPRPRPRISPRP | -1.36
62 | RRIRERPPRLPRPRPRPRKEPRP | -0.0305
63 | RRIRERPPRLPRPRPRPRLEPRP | -0.0353
64 | RRIRERPPRLPRPRPRPRLFPRP | 0.00738
65 | RRIRERPPRLPRPRPRPRLIPRP | -0.635
66 | RRIRERPPRLPRPRPRPRMKPRP | -0.243

Row | Sequence | shrunken log2 fold change
67 | RRIRERPPRLPRPRPRPRNLPRP | -0.514
68 | RRIRERPPRLPRPRPRPRQHPRP | -0.0319
69 | RRIRERPPRLPRPRPRPRRHPRP | 0.411
70 | RRIRERPPRLPRPRPRPRRLPRP | 0.138
71 | RRIRERPPRLPRPRPRPRVGPRP | 0.33
72 | RRIRERPPRLPRPRPRPRWWPRP | 0.0167
73 | RRIRERPPRLPRPRPRPRYEPRP | -0.276
74 | RRIRERPPRLPRPRPRPRYKPRP | -0.0357
75 | RRIRERPPRLPRPRPRPRYWPRP | 0.185
76 | RRIRERPPRLPRPRPRPSAIPRP | -0.115
77 | RRIRERPPRLPRPRPRPSCCPRP | 0.294
78 | RRIRERPPRLPRPRPRPSCFPRP | -0.322
79 | RRIRERPPRLPRPRPRPSCQPRP | -0.47
80 | RRIRERPPRLPRPRPRPSCYPRP | -0.941
81 | RRIRERPPRLPRPRPRPSDHPRP | -0.133
82 | RRIRERPPRLPRPRPRPSDPPRP | -0.417
83 | RRIRERPPRLPRPRPRPSECPRP | -0.592
84 | RRIRERPPRLPRPRPRPSFSPRP | -0.765
85 | RRIRERPPRLPRPRPRPSFVPRP | -0.588
86 | RRIRERPPRLPRPRPRPSHYPRP | -0.611
87 | RRIRERPPRLPRPRPRPSIEPRP | -0.37
88 | RRIRERPPRLPRPRPRPSIQPRP | -0.0558

Row | Sequence | shrunken log2 fold change
89 | RRIRERPPRLPRPRPRPSKDPRP | -0.664
90 | RRIRERPPRLPRPRPRPSKLPRP | -1.06
91 | RRIRERPPRLPRPRPRPSNIPRP | -0.662
92 | RRIRERPPRLPRPRPRPSQLPRP | -0.127
93 | RRIRERPPRLPRPRPRPSTLPRP | -0.999
94 | RRIRERPPRLPRPRPRPSVHPRP | -0.329
95 | RRIRERPPRLPRPRPRPTCCPRP | -0.0839
96 | RRIRERPPRLPRPRPRPTCFPRP | -0.133
97 | RRIRERPPRLPRPRPRPTCGPRP | 0.497
98 | RRIRERPPRLPRPRPRPTCMPRP | -0.0554
99 | RRIRERPPRLPRPRPRPTCPPRP | -0.103
100 | RRIRERPPRLPRPRPRPTDNPRP | -0.841
101 | RRIRERPPRLPRPRPRPTEWPRP | -0.551
102 | RRIRERPPRLPRPRPRPTFTPRP | -0.134
103 | RRIRERPPRLPRPRPRPTGHPRP | -0.0413
104 | RRIRERPPRLPRPRPRPTHFPRP | -0.382
105 | RRIRERPPRLPRPRPRPTHLPRP | 0.229
106 | RRIRERPPRLPRPRPRPTHYPRP | -0.312
107 | RRIRERPPRLPRPRPRPTIHPRP | -0.324
108 | RRIRERPPRLPRPRPRPTINPRP | -0.399
109 | RRIRERPPRLPRPRPRPTKWPRP | 0.155

From the supplement of paper PMC9112550, “Optimization of the antimicrobial peptide Bac7 by deep mutational scanning” (BMC Biology, 2022)
